The data set can be described thus: soluble on expression in E. coli; label from the status in PepcDB or PDB records.
Regarding “MKKGLKMRALERSDLRFIHELNNNRNIMAYWFEEPYESYDELEELYRKHIHDDAERRFVVEDADGILIGLVELIEINYIHRSAEFQII”, the “soluble on expression in E. coli” value is “not soluble”.

Regarding “MKKHHHHHHLVPRGSIPHLILELLKCEPDEPQVQAKIMAYLQQEQANRSKHEKLSTFGLMCKMADQTLFSIVEWARSSIFFRELKVDDQMKLLQNCWSELLILDHIYRQVVHGKEGSIFLVTGQQVDYSIIASQAGATLNNLMSHAQELVAKLRSLQFDQREFVCLKFLVLFSLDVKNLENFQLVEGVQEQVNAALLDYTMCNYPQQTEKFGQLLLRLPEIRAISMQAEEYLYYKHLNGDVPYNNLLIEMLHAKRA”, the “soluble on expression in E. coli” value was “soluble”.

In the case of “MKKIAIFGSAFNPPSLGHKSVIESLSHFDLVLLEPSIAHAWGKNMLDYPIRCKLVDAFIKDMGLSNVQRSDLEQALYQPGQSVTTYALLEKIQEIYPTADITFVIGPDNFFKFAKFYKAEEITERWTVMACPEKVKIRSTDIRNALIEGKDISTYTTPTVSELLLNEGLYRETLSGK”, the “soluble on expression in E. coli” value is on record as “soluble”.

On to “MKKILLMLSLLFFTTAGFSEVSDTLVTGGYDKQAMSDAIKHARKETDKFIEVMNKKDADTFAVKAPITDHGRTEHFWLTDVTYSNGMFIGVISNDPGIVTNVEYGQEWKIKKEDISDWMYTRGDKIYGGYTIDPLLVTYPKEEADELRAKLVR”, for which the “soluble on expression in E. coli” value is on record as “soluble”.

With “MKKLFGVGPDLLGDGKVLFEWSPKGNFLAAAGSKRKVNIFDRNGRLYDEVHFPPAEYPNPDGRACAAAQMQWDPAGEQLAILPAGNTHVFIWLAGNKEVQKIESEFKTQEFSCMAWSRNGMYLGVATVKGNVMMYNARERKKTPLVGKHTKKIVAAAWNKDNIMALAGQDKTVTLTDGVTGDTIKTFHLKDVPMDLCVSDKKEDGYSRREENTYSLNINRKTLYIMQCTAEGDRPLELAFLDTYGPIMKHSWFGDGYILLGYKNGYVAVVSSHSREISEEVHSGKYLDTLTDVTYCASLGRVAMAGANCVRVLDANADYNEIKGDAVDLDANQAIEKVGWTKDGQVLTVGTHNGYMHSFLASLPMVYDFHGTRVLYLTSLLEMTLLDVSRRQTVARIELENEPAFCGLGPSHAAVGMNNQAAFYSLGEKVGKVVQRREYLGTITAIKLNETQAAVLTGGHVVVHPISVEAGHAPDELDVVIPGPGQPANITCVALTPTFVITGSRTGTLSYYLSPDVTPVNEFRHDDGGIVRLFPQATGARLVFEDDKGALHLFNPVNDHVVAVPYTGRAETVMWDTSDTNVMVIGDGTALHSFLYVPVSLTGPQVQDLGKQAVPATHTPLTVCNGVVGCRLKSGAMDNVTLESHKMLQPGDAVARAAPAKRFAAALKLYKLRDAVECAKQLRQVESWRTLALAALDVLDIDTAINAYREIGDASMVLSLERVRQHEDRNLLSAHIMVLLEKDYGQAQELFLRSSVPRAALEMRMDLKHWTDALKLAEQLDPDAIATICKEHGAMLEMTGEYSNAKSHYQQALDALAVSVGPAQPDLEAACKAGIARTTLQLGDLRQGRQLAMQLNSQTLFKECALILEGLQQLTEAAEMYERAGQFERAASIYIQTKNFAAAAPLMARISSSKLQLQFAKAKEAEGRWQEAAAAYEAAGDMDAVVRLCLERLSQPQRAYAIVRKTQSVEAANQLSRFCLQSQDFGGAVEFLLMAGQMDQAFDIAMGHNEMDTFARIVAASAKPVDYQRIAQYYESRGEYDKAADMWSKCDQAPRAVQLYLKVGTNPALEKAVQVVEQTRSHQLGVLVLDYVNEEKDGTTRDEFRFKLNIAMGQFAEAARDALEMARFEQEEGNYRVAHDKLFGTVKQLEALNTKPPGELLRALMLLHSYTLVKSLIAINDHTTAARMLVRVARNISKFPKHIVPILTSTVIECHRANLKKTAFEYASMLMRPEYRDQVAVKYKKKIELMVRKPEKDPEELEEPLADCPFCNMPGPETELQCISCQNILPFDLATGKRMVLSDWAECPGCKFPASASQFIRIISAEGRCPM”, the “soluble on expression in E. coli” value is given as “not soluble”.

Regarding “MKKLLVIRNDKIGDFMLCFPAFMMLKQSMPNIEITALVPNYTAPLAELCPAIDHLIIDNTDKQDPIAFKQVQQAVQNGQFDAVICFVSSWYNAKLTWQSGIRYRLAPATKLFQFLYNHRLTQRRSQSIKAESEYNLDLARAFLIDHHMMPVEPQLEHHHHHH”, the “soluble on expression in E. coli” value is recorded as “soluble”.

Take “MKKLYIITGPAGVGKSTTCKRLAAQLDNSAYIEGDIINHMVVGGYRPPWESDELLALTWKNITDLTVNFLLAQNDVVLDYIAFPDEAEALAQTVQAKVDDVEIRFIILWTNREELLRRDALRKKDEQMGERCLELVEEFESKGIDERYFYNTSHLQPTNLNDIVKNLKTNPRFIFCMAGDPLEHHHHHH”: the “soluble on expression in E. coli” value is given as “soluble”.

With “MKKQQFIDMQEQGTSTIPNLLLTHYKQLGLNETELILLLKIKMHLEKGSYFPTPNQLQEGMSISVEECTNRLRMFIQKGFLFIEECEDQNGIKFEKYSLQPLWGKLYEYIQLAQNQTQERKAEGEQKLEHHHHHH”, the “soluble on expression in E. coli” value is on record as “soluble”.

Turning to “MKKRKPMDYKTRIIYALLKSRLKTIDTYASRAEEIQDRQLRRILSSAAYTSTGIRYGFNRISSKECFARNVPVRDYESTQAEIERMLRGEKDVLCPGRCTWFAKSSGTTNSKSKFIPVPYRHLHYCHYQGGKDSLSLYLRNRPDSRFFTTKGLVLGGSHAPVSMNADIQVGDLSAILVENMPVLGNCMRVPSKETLLMDEWTEKLKAVVREVAHVRVGSLSGVPSWILVLIKDVLAATGRETLSDVWPELEVFFHGGISFAPYRAQYEKLIPSSRMQYMETYNASEGFFGIQDDPKDSGMLLMLDYGVYYEFIPMEHFGRPEAEAIPLEGVEKGRNYAMIISTLGGLYRYVLGDTVRFTSVKPYKIVITGRTKHYINAFGEELMVDNSDKALAATCKRFGVQAVDYTVAPHFFSEEGKGRHDWLIEFVSAPADPNAFAKALDAELQTLNSDYEAKRYADMTLLPLSLTIARSGLFHDWLTEQGKLGGQHKVPRLSNTPEIMRSILEMNSAAALEHHHHHH”, the “soluble on expression in E. coli” value is “not soluble”.

“MKKSITTLDLNLLLCLQLLMQERSVTKAAKRINVTPSAVSKSLAKLRAWFDDPLFVNSPLGLSPTPLMVSMEQNLAEWMQMSNLLLDKPHHQTPRGLKFELAAESPLMMIMLNALSKQIYQRYPQATIKLRNWDYDSLDAITRGEVDIGFSGRESHPRSRELLSSLPLAIDYEVLFSDVPCVWLRKDHPALHQTWNLDTFLRYPHISICWEQSDTWALDNVLQELGRERTIAMSLPEFEQSLFMAAQPDNLLLATAPRYCQYYNQLHQLPLVALPLPFDESQQKKLEVPFTLLWHKRNSHNPKIVWLRETIKNLYASMA”: the “soluble on expression in E. coli” value is “soluble”.

For “MKKSLLGIISILSLTLLFSGCVDNSGAEEQAVLHAYVGAGMQMPMDEIAIEFEEKYGIKVEYDYSGSGALLSKIVASNQGDIFMPGDCSYVYQLQEKEMSTECSNVTKHIPVIAVQKGNPKNITGLSDLGQDDLELALGDSSISIGKLFTKILSKAETKGVNVTEAVNSNTVVTGATVKQVLLYVTEKNVDAAVVWSADAYENSDAVDIVPIESEYNIIKTVPISILSTTEDYDNAKLFYDFVNNEGKEIFEKHGFVALE”, the “soluble on expression in E. coli” value is on record as “not soluble”.

In the case of “MKKTAIALLAWFVSSASLAATPWQKITHPVPGAAQSIGSFANGCIIGADTLPVQSDNYQVMRTDQRRYFGHPDLVMFIQRLSHQAQQRGLGTVLIGDMGMPAGGRFNGGHASHQTGLDVDIFLQLPKTRWSQAQLLRPQALDLVSRDGKHVVPSRWSSDIASLIKLAAQDNDVTRIFVNPAIKQQLCLDAGNDRDWLRKVRPWFQHRAHMHVRLRCPADSLECEDQPLPPPGDGCGAELQSWFEPPKPGTTKPEKKTPPPLPPSCQALLDEHVL”, the “soluble on expression in E. coli” value is “not soluble”.

In the case of “MKKTHVTIGLSNPKSPTNVGAVMRAAGCYQVDDVRYTGERYDRAAKFQTDTKKVASKIPLTSVNCLLDDLPEDMKVVCVELAEGAVSLPQFQHPDKAIYVFGPEDGSITQQVADRADHVVYVPTVGCMNLAATVNVLLYDRLAK”, the “soluble on expression in E. coli” value is “not soluble”.

Consider “MKKTIQQLVLERILILDGAMGTMIQQYNLREEDFRNERFAHIPGQLKGNNDLLCLTRPDVIRDIHRKYLEAGADIIETNTFSSTTISMADYHVQEYVREMNQAAVKLAREVADEYTALNPDKPRFVAGSVGPTNKTCSMSPDVNNPAYRAVTYDEMADAYQQQMEAMLESGVDALLIETIFDTLNAKAAILAAERAMKATGVKVPVMLSVTVSDTGGRTLSGQTLEAFLASVQHADIFSVGLNCSFGARQLKPFLEQLAARAPYYISAYPNAGLPNSLGKYDQTPADMAHEVKEYVHEGLINIIGGCCGTTDAYIAEYPALIAGAKPHIPVCKPDCMWLSGLELLEVKPEINFVNVGERCNVAGSRKF”, for which the “soluble on expression in E. coli” value is listed as “not soluble”.

For the origin of these results see the DeepSol protein solubility set.
